# Residue numbers refer to the chain shown, from its start. Numbers in names are those of the source.
# B1: C52F peptide (peptide)
# peptide: NHTTWMEWDREINNYTSLIHSLIEESQNLQEKNEQELLELDKWASLWNWFNIKIK
# B2: C52L peptide (peptide)
# peptide: B1 peptide with I23F, N33A, L38F
# Columns and labels:
# Experiment in all cases: cell-based or functional assay
# [1] = molecular target: envelope glycoprotein of virus isolate HIV-1 UG270 (HIV-1 UG270)
# [2] = molecular target: envelope glycoprotein of virus isolate HIV-1 JFRL (HIV-1 JFRL)
# [3] = molecular target: envelope glycoprotein of virus isolate HIV-1 DJ258 (HIV-1 DJ258)
# [4] = molecular target: envelope glycoprotein of virus isolate HIV-1 NL4-3 (HIV-1 NL4-3)
# [5] = molecular target: envelope glycoprotein of virus isolate HIV-1 Case C 7/86 (HIV-1 Case C 7/86)
# [6] = molecular target: envelope glycoprotein of virus isolate HIV-1 CM.235 (HIV-1 CM.235)
# [7] = molecular target: envelope glycoprotein of virus isolate HIV-1 BZ162 (HIV-1 BZ162)
# [8] = molecular target: envelope glycoprotein of virus isolate HIV-1 94ZW103 (HIV-1 94ZW103)
Binder,"IC50 (nM), Human PBMC Infectivity Assays [1]","IC50 (nM), Human PBMC Infectivity Assays [2]","IC50 (nM), Human PBMC Infectivity Assays [3]","IC50 (nM), Human PBMC Infectivity Assays [4]","IC50 (nM), Human PBMC Infectivity Assays [5]","IC50 (nM), Human PBMC Infectivity Assays [6]","IC50 (nM), Human PBMC Infectivity Assays [7]","IC50 (nM), Human PBMC Infectivity Assays [8]"
B1,68 nM,5 nM,9 nM,23 nM,49 nM,11 nM,2 nM,4 nM
B2,61 nM,6 nM,11 nM,20 nM,17 nM,,3 nM,3 nM

# From patent US20070134221A1 (published 2007)
